This is an account of results in US10471162B2, “Collagen targeted imaging probes” (priority 2014, dated 2019).

Where a SMILES comes first, the peptide text is derived from it. Bridges are numbered along the chain shown (N, C = ends). The star is where a group is joined. NODAGA = O=C(O)CN1CCN(CC(=O)O)CCN(C(CCC(=O)*)C(=O)O)CC1

What is called tissue uptake is the percentage of the injected dose found per gram of tissue. One may read the Kd as the free concentration of one partner at which half of the binding sites on the other are occupied at equilibrium, for simple one-to-one binding. Higher therefore signals lower affinity.

A short description of one data set: in vivo. Type of data set: in vivo, mouse. The note with it: male, C57/BL6, mouse, in vivo, iv, total radioactivity; for tissue uptake at 2.5 h / tissue uptake at 2 h: Biodistribution % ID/g. The method, then: (§1) Pulmonary fibrosis was induced in 7-8-week-old male C57/BL6 mice by transtracheal administration of bleomycin (BM; 2.5 U/kg) in 50 μL of PBS under direct vision using a small cervical incision. Sham animals received only PBS. Animals were placed in a small-animal PET/SPECT/CT scanner (Triumph; TriFoil Imaging), equipped with inhalation anesthesia and heating pad. Each animal was anesthetized with isoflurane (4% for induction, 2-2.5% for maintenance in medical air) and body temperature was kept at 37-38° C. using a heating pad. The femoral vein was cannulated for intravenous delivery of the PET agent. Each mouse was injected with approximately 0.1 mL and 20-50 μCi of ^64Cu-CBP(n), 0.1 mL and 20-50 μCi of ^68Ga-CBP(n) and 0.1 mL and 10-20 μCi of Al^18F-CBP(n) in a 18 mM solution of sucrose in water, followed by saline flush. […] The lungs, blood, urine, heart, liver, left rectus femoris muscle, spleen, small intestine, kidneys, left femur bone were collected from all animals. The tissues were weighed, and radioactivity in each tissue was measured on a gamma counter (CobraII Auto gamma; Packard). The radioactivity in the lung was reported as percent injected dose per gram corrected with the average sham weight, which was calculated by dividing the counts of ^64Cu per average sham tissue weight in gram by the total of counts of the injected dose. The radioactivity in every other tissue was reported as percent injected dose per gram (% ID/g), which was calculated by dividing the counts of ^64Cu per gram of tissue by the total of counts of the injected dose. A p-value of less than 0.05 was considered significant. Uncertainties are expressed as the standard error of the mean.

Data set [1] relates to pulmonary fibrosis, C57/BL6 mice (bleomycin or sham). In words: in vivo. The note with it: for Biodistribution % ID/g, blood / Biodistribution % ID/g, heart / Biodistribution % ID/g, liver / Biodistribution % ID/g, spleen / Biodistribution % ID/g, bone / Biodistribution % ID/g, kidney / Biodistribution % ID/g, lungs / Biodistribution % ID/g, sm. intestine: male, C57/BL6, mouse; for Biodistribution % ID/g, blood / Biodistribution % ID/g, heart / Biodistribution % ID/g, liver / Biodistribution % ID/g, spleen / Biodistribution % ID/g, bone / Biodistribution % ID/g, kidney / Biodistribution % ID/g, lungs / Biodistribution % ID/g, sm. intestine / route of excretion: iv; for lung uptake in BM-treated (fibrotic) mice compared to sham, in words: biodistribution 2.5 hours after injection. Type of data set: in vivo, mouse. Here is the method: as §1

In the next data set the target is T1, rat tail collagen (Rattus norvegicus, UniProt P02454+P02466).
T1 construct: from tissue; host or cells: rat tail
T1 sequence (P02454 152-1207 limits assumed): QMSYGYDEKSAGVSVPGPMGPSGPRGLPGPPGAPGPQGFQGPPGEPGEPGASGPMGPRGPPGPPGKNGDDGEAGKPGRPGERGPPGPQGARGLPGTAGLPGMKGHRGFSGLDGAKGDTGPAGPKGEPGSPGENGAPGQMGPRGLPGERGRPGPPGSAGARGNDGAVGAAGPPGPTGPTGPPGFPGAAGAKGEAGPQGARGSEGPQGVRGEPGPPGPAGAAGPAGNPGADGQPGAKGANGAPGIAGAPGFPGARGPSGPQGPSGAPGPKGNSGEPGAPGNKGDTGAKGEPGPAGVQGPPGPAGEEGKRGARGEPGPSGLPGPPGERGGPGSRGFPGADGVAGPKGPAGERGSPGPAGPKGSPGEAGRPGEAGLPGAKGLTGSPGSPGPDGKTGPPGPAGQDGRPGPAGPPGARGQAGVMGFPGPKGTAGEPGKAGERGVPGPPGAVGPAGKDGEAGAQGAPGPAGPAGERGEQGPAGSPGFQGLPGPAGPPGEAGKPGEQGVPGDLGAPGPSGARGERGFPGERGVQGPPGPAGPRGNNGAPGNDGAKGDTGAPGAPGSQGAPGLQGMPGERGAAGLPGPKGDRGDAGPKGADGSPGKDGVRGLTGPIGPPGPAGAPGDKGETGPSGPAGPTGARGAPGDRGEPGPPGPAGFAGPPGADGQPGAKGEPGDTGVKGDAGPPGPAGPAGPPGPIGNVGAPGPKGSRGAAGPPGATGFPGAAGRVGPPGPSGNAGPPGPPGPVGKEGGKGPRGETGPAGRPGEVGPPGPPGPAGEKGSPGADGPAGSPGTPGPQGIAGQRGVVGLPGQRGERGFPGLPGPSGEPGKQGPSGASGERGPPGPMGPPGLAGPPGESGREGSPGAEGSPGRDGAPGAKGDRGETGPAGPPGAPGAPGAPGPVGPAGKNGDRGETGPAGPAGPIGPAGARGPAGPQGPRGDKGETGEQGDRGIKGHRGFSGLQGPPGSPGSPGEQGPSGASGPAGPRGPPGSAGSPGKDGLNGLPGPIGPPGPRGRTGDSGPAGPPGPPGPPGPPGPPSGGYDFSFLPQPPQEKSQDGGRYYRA
T1 sequence (P02466 86-1125 limits assumed): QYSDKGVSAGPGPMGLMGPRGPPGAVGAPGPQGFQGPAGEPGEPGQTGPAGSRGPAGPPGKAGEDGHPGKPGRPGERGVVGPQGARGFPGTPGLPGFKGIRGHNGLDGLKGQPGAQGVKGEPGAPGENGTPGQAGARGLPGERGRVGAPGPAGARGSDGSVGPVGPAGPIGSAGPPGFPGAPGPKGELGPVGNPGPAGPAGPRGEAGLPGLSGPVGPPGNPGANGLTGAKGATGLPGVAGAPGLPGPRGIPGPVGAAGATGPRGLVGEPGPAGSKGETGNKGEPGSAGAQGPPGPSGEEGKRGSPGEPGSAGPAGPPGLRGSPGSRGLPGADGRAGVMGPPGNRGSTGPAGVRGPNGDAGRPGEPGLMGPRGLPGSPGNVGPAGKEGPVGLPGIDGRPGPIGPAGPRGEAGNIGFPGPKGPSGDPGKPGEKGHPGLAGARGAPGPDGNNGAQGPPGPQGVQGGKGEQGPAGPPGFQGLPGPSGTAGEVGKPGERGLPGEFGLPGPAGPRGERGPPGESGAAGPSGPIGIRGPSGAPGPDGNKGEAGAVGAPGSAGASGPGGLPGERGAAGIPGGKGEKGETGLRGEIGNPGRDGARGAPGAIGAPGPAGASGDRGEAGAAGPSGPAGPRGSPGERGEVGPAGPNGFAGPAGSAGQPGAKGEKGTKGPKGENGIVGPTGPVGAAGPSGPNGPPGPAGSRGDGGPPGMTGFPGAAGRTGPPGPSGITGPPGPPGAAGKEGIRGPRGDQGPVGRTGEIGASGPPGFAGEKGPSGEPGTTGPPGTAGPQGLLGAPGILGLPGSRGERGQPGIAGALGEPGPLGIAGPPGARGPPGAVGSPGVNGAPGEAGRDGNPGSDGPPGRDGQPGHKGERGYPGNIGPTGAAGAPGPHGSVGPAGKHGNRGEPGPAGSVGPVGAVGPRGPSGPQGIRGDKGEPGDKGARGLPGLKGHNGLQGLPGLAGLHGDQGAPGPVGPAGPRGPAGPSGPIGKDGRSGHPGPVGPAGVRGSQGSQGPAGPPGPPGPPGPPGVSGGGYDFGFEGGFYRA
Kind of data set: rat tail collagen-binding assay. The note with it: 2 hours at room temperature, single binding site model. The method, then: Binding isotherms were obtained by following a method previously reported. (Caravan, P., Das, B., Dumas, S., Epstein, F. H., Helm, P. A., Jacques, V., Koerner, S., Kolodziej, A., Shen, L., Sun, W., Zhang, Z., Angewandte Chemie, 2007, 119(43), 8319-8321.) Briefly, increasing concentrations of a mixture of ^63/65Cu-CBP(n) and ^64Cu-CBP(n) were added to collagen containing wells. […] An aliquot of each solution was reserved as a measure of the total concentration. The plates were incubated on a shaker table (300 rpm) for 2 hours at room temperature to allow the compound to bind. After 2 hours, the supernatant from each well (with or without collagen) was assayed for ^64Cu content. The relative amount of free, unbound compound in the sample supernatants and the amount of compound in the reserved (total) sample were determined by using a gamma counter. The bound concentration is [Total]−[Free]. The concentration of ^63/65Cu-CBP(n) was less than the collagen concentration and the data were fit to a model of a single binding site with dissociation constant, Kd.

With `CC(C)C[C@H](NC(=O)[C@@H]1CSSC[C@@H](NC(=O)[C@H](Cc2c[nH]cn2)NC(=O)[C@H](Cc2c[nH]c3ccccc23)NC(=O)[C@H](CCCCNC(=O)CNC(=O)CCC(C(=O)O)N2CCN(CC(=O)O)CCN(CC(=O)O)CC2)NC(=O)CNC(=O)CCC(C(=O)O)N2CCN(CC(=O)O)CCN(CC(=O)O)CC2)C(=O)N[C@@H]([C@@H](C)O)C(=O)N[C@@H]([C@@H](C)O)C(=O)N[C@@H](CCCCNC(=O)CCC(C(=O)O)N2CCN(CC(=O)O)CCN(CC(=O)O)CC2)C(=O)N[C@@H](Cc2ccccc2)C(=O)N2CCC[C@H]2C(=O)N[C@@H](Cc2c[nH]cn2)C(=O)N[C@@H](Cc2c[nH]cn2)C(=O)N[C@@H](Cc2ccc(O)cc2)C(=O)N1)C(=O)N[C@@H](Cc1ccc(O)cc1)C(=O)N[C@@H](Cc1ccc(-c2ccccc2)cc1)C(N)=O` (stereo partly drawn) (64Cu complex, metal not drawn) [CBP11], the tissue uptake at 2.5 h in the data set “in vivo” (blood) turned out to be 0.21 ± 0.017 %ID/g. For the same compound, the tissue uptake at 2.5 h in “in vivo” (heart) is 0.143 ± 0.008 %ID/g. The tissue uptake at 2.5 h in “in vivo” (liver) is 1.3 ± 0.086 %ID/g. The tissue uptake at 2.5 h in the data set “in vivo” (spleen) came out at 0.408 ± 0.015 %ID/g. In data set [1] (in vivo, 2.5 h), the “Biodistribution % ID/g, blood” value worked out at 0.373 ± 0.180 % ID/g; the “Biodistribution % ID/g, heart” value came out at 0.170 ± 0.044 % ID/g; the “Biodistribution % ID/g, liver” value was 0.953 ± 0.069 % ID/g; the “Biodistribution % ID/g, spleen” value turned out to be 0.475 ± 0.063 % ID/g.
For `C[C@@H](O)[C@@H]1NC(=O)[C@@H](NC(=O)[C@H](Cc2c[nH]cn2)NC(=O)[C@H](Cc2c[nH]c3ccccc23)NC(=O)[C@H](CCC(N)=O)NC(=O)CNC(=O)CCC(C(=O)O)N2CCN(CC(=O)O)CCN(CC(=O)O)CC2)CSSC[C@@H](C(=O)N[C@@H](Cc2ccccc2)C(=O)N[C@@H](Cc2ccc(O)cc2)C(=O)NCC(N)=O)NC(=O)[C@H](Cc2ccc(O)cc2)NC(=O)[C@H](Cc2c[nH]cn2)NC(=O)[C@H](Cc2c[nH]cn2)NC(=O)[C@@H]2CCCN2C(=O)[C@H](Cc2ccccc2)NC(=O)[C@H](CCCNC(=N)N)NC(=O)[C@H]([C@@H](C)O)NC1=O` (stereo partly drawn) [CBP5] ({NODAGA}-GQWHCTTRFPHHYCFYG-NH2; disulfide 5-14), the Kd on rat tail collagen stood at 7.2 ± 5.2 µM. Further, the tissue uptake at 2 h in “in vivo” (blood) amounted to 0.11 ± 0.018 %ID/g. For the same compound, the tissue uptake at 2 h in “in vivo” (bone) amounted to 0.703 ± 0.343 %ID/g. For the same compound, the tissue uptake at 2 h in the data set “in vivo” (heart) was determined as 0.075 ± 0.009 %ID/g. In “in vivo” (kidney), the tissue uptake at 2 h was determined as 30.5 ± 2.01 %ID/g. The tissue uptake at 2 h in “in vivo” (liver) was 2.63 ± 0.146 %ID/g. In the data set “in vivo” (lungs), the tissue uptake at 2 h is 0.318 ± 0.135 %ID/g. For the same compound, in the data set “in vivo” (sm. intestine), the tissue uptake at 2 h is 0.513 ± 0.1 %ID/g. Moreover, in the data set “in vivo” (spleen), the tissue uptake at 2 h stood at 0.815 ± 0.42 %ID/g. Further, in the data set “in vivo” (Biodistribution % ID/lung), the tissue uptake dose at 2 h amounted to 0.032 ± 0.016 %ID. For the same compound, the “lung uptake in BM-treated (fibrotic) mice compared to sham, in words” value in data set [1] was “greater lung uptake in BM-treated mice”. In data set [1] (in vivo, 2 h), the “Biodistribution % ID/g, blood” value is 0.121 ± 0.028 % ID/g; the “Biodistribution % ID/g, bone” value turned out to be 0.490 ± 0.237 % ID/g; the “Biodistribution % ID/g, heart” value was found to be 0.094 ± 0.013 % ID/g; the “Biodistribution % ID/g, kidney” value is on record as 18.368 ± 1.909 % ID/g. In data set [1] (in vivo, 2 h), the “Biodistribution % ID/g, liver” value was found to be 3.836 ± 0.770 % ID/g; the “Biodistribution % ID/g, lungs” value was determined as 0.623 ± 0.320 % ID/g; the “Biodistribution % ID/g, sm. intestine” value is recorded as 0.431 ± 0.089 % ID/g; the “Biodistribution % ID/g, spleen” value was 1.588 ± 0.546 % ID/g. Also, in data set [1] (mouse, in vivo), the “Biodistribution % ID/lung” value was 0.016 ± 0.007 % ID/lung and the route of excretion result is “excreted mainly through the kidneys”.
`CC(C)C[C@H](NC(=O)[C@@H]1CSSC[C@H](NC(=O)[C@H](Cc2c[nH]cn2)NC(=O)[C@H](Cc2c[nH]c3ccccc23)NC(=O)[C@H](CCC(N)=O)NC(=O)CNC(=O)CCC(C(=O)O)N2CCN(CC(=O)O)CCN(CC(=O)O)CC2)C(=O)N[C@@H](Cc2ccc(O)cc2)C(=O)N[C@@H]([C@@H](C)O)C(=O)N[C@@H](CC(C)C)C(=O)N[C@@H](Cc2ccccc2)C(=O)N2CCC[C@H]2C(=O)N[C@@H](Cc2c[nH]cn2)C(=O)N[C@@H](Cc2c[nH]cn2)C(=O)N[C@@H](Cc2ccc(O)cc2)C(=O)N1)C(=O)N[C@@H](Cc1ccc(O)cc1)C(=O)NCC(N)=O` (stereo partly drawn) [CBP6] ({NODAGA}-GQWHCYTLFPHHYCLYG-NH2; disulfide 5-14; C-terminus assumed) yielded a Kd on rat tail collagen of 14.6 ± 5.8 µM. Moreover, the tissue uptake at 2 h in the data set “in vivo” (blood) turned out to be 0.147 ± 0.01 %ID/g. In the data set “in vivo” (heart), the tissue uptake at 2 h turned out to be 0.121 ± 0.017 %ID/g. Also, in the data set “in vivo” (kidney), the tissue uptake at 2 h was 13.4 ± 1.23 %ID/g. In addition, the tissue uptake at 2 h in the data set “in vivo” (liver) came to 2.64 ± 0.144 %ID/g. Further, in “in vivo” (lungs), the tissue uptake at 2 h turned out to be 0.013 ± 0.002 %ID/g. Moreover, the tissue uptake at 2 h in the data set “in vivo” (sm. intestine) amounted to 0.747 ± 0.168 %ID/g. Also, the tissue uptake at 2 h in the data set “in vivo” (spleen) stood at 0.669 ± 0.03 %ID/g. In addition, the “lung uptake in BM-treated (fibrotic) mice compared to sham, in words” value in data set [1] is given as “greater lung uptake in BM-treated mice”. In data set [1] (in vivo, 2 h), the “Biodistribution % ID/g, blood” value is listed as 0.279 ± 0.096 % ID/g; the “Biodistribution % ID/g, heart” value is reported as 0.156 ± 0.016 % ID/g; the “Biodistribution % ID/g, kidney” value is on record as 14.008 ± 0.727 % ID/g; the “Biodistribution % ID/g, liver” value came out at 2.503 ± 0.218 % ID/g. In data set [1] (in vivo, 2 h), the “Biodistribution % ID/g, lungs” value was found to be 0.019 ± 0.003 % ID/g; the “Biodistribution % ID/g, sm. intestine” value turned out to be 0.938 ± 0.164 % ID/g; the “Biodistribution % ID/g, spleen” value is reported as 0.775 ± 0.084 % ID/g. For the same compound, the route of excretion entry in data set [1] (mouse, in vivo) is given as “excreted mainly through the kidneys”.
As for `CC(C)C[C@H](NC(=O)[C@@H]1CSSC[C@H](NC(=O)[C@H](Cc2c[nH]cn2)NC(=O)[C@H](Cc2c[nH]c3ccccc23)NC(=O)[C@H](CCCCNC(=O)CNC(=O)CN2CCN(CC(=O)O)CCN(CC(=O)O)CC2)NC(=O)CNC(=O)CN2CCN(CC(=O)O)CCN(CC(=O)O)CC2)C(=O)N[C@@H]([C@@H](C)O)C(=O)N[C@@H]([C@@H](C)O)C(=O)N[C@@H](CCCCNC(=O)CN2CCN(CC(=O)O)CCN(CC(=O)O)CC2)C(=O)N[C@@H](Cc2ccccc2)C(=O)N2CCC[C@H]2C(=O)N[C@@H](Cc2c[nH]cn2)C(=O)N[C@@H](Cc2c[nH]cn2)C(=O)N[C@@H](Cc2ccc(O)cc2)C(=O)N1)C(=O)N[C@@H](Cc1ccc(O)cc1)C(=O)N[C@@H](Cc1ccc(-c2ccccc2)cc1)C(N)=O` [CBP10, Al^18F-NOTA-cPep(7)], the tissue uptake at 2.5 h in the data set “in vivo” (bone) worked out at 2.53 ± 0.735 %ID/g. Also, the tissue uptake at 2.5 h in the data set “in vivo” (kidney) worked out at 26.2 ± 4.85 %ID/g. Also, the tissue uptake at 2.5 h in “in vivo” (liver) came out at 14 ± 1 %ID/g. Moreover, the tissue uptake at 2.5 h in the data set “in vivo” (sm. intestine) is 1.12 ± 0.48 %ID/g. Also, in data set [1] (in vivo, 2.5 h), the “Biodistribution % ID/g, bone” value stood at 2.963 ± 0.716 % ID/g; the “Biodistribution % ID/g, kidney” value was 44.170 ± 16.811 % ID/g; the “Biodistribution % ID/g, liver” value turned out to be 27.231 ± 0.995 % ID/g; the “Biodistribution % ID/g, sm. intestine” value was determined as 1.492 ± 0.542 % ID/g.
